The results in this text go back to article PMC9673926, “Nucleotide binding as an allosteric regulatory mechanism for Akkermansia muciniphila β-N-acetylhexosaminidase Am2136” (Gut Microbes, 2022).

Positions count from the first letter of the chain named. Names may count otherwise.

In data set [1] the target is T1, Am2136 WT (Akkermansia muciniphila, UniProt B2UPR7).
T1 construct: The coding region (residue Q20-L756) of Am2136 without signal peptide was based on UniProt; 6XHis (N); made in house; host or cells: E. coli BL21 (DE3)
Put plainly: Nucleotide binding affinity by intrinsic fluorescence. The following applies: Am2136 WT; fluorescence ex 286 nm/em 336 nm. Here is the method:
The nucleotide binding ability was determined on Fluorescence Spectrometer Duetta (HORIBA) by measuring the change of peak intensity. The fluorescence was excited at 286 nm and emitted at 336 nm. And the measurement was processed under 400 V voltage with 2.5 nm excitation slit and 5 nm emission slit. […] The sample was incubated at 4°C for 5 min before testing.

Data set [2] addresses T1, Am2136 WT. Kind of data set: Enzyme activity assay (pNP-β-GlcNAc hydrolysis) regulated by nucleotides. In kind it is biochemical. The following applies: WT; 1 mM nucleotide; substrate pNP-β-GlcNAc; 37°C.
Substrate in data set [3]: CC(=O)N[C@H]1[C@H](Oc2ccc([N+](=O)[O-])cc2)O[C@H](CO)[C@@H](O)[C@@H]1O
Kind of data set: purified protein, by the assay type. The following applies: pH 8.0.

Substrate in data set [4]: CC(=O)N[C@H]1[C@H](Oc2ccc([N+](=O)[O-])cc2)O[C@H](CO)[C@@H](O)[C@@H]1O
Put plainly: Release of 4-nitrophenolate from pNP-β-GlcNAc (0.125-4 mM) followed at 405 nm for 5 min with 2 μM enzyme in 25 mM Tris pH 8.0, 150 mM NaCl at 37 °C, no nucleotide. In kind it is biochemical. The source says:
All experiments were repeated three times.

A word on the Kd: it is the free concentration of one partner at which half of the binding sites on the other are occupied at equilibrium, for simple one-to-one binding. Higher therefore signals weaker binding. The term Vmax denotes the rate approached at saturating substrate. `Nc1ncnc2c1ncn2[C@@H]1O[C@H](COP(=O)(O)OP(=O)(O)O)[C@@H](O)[C@H]1O` [ADP] displayed an equilibrium dissociation constant (Kd) at Am2136 WT [1] of 255 ± 4.98 µM. Moreover, the maximal velocity (Vmax) on Am2136 WT [2] worked out at 422 ± 6 µmol/min.
At Am2136 WT [1], `Nc1ncnc2c1ncn2[C@@H]1O[C@H](COP(=O)(O)OP(=O)(O)OP(=O)(O)O)[C@@H](O)[C@H]1O` [ATP] gave an equilibrium dissociation constant (Kd) of 245 ± 5.99 µM. For the same molecule, on Am2136 WT [2], the Vmax came to 442 ± 9 µmol/min.
In the same order, the values of `Nc1ccn([C@@H]2O[C@H](COP(=O)(O)OP(=O)(O)O)[C@@H](O)[C@H]2O)c(=O)n1` [CDP] are 157 ± 3.89 µM and 435 ± 6 µmol/min.
For `Nc1ccn([C@@H]2O[C@H](COP(=O)(O)OP(=O)(O)OP(=O)(O)O)[C@@H](O)[C@H]2O)c(=O)n1` [CTP], on Am2136 WT [1], the Kd was determined as 167 ± 5.91 µM. Further, the Vmax on Am2136 WT [2] was 436 ± 7 µmol/min.
The molecule `Nc1nc2c(ncn2[C@@H]2O[C@H](COP(=O)(O)OP(=O)(O)OP(=O)(O)O)[C@@H](O)[C@H]2O)c(=O)[nH]1` [GTP] came in with a Kd on Am2136 WT [1] of 123 ± 3.76 µM. In addition, on Am2136 WT [2], the Vmax came to 449 ± 7 µmol/min.
For `O=c1ccn([C@@H]2O[C@H](COP(=O)(O)OP(=O)(O)O)[C@@H](O)[C@H]2O)c(=O)[nH]1` [UDP], at Am2136 WT [1], binding was put at a Kd of 179 ± 7.71 µM. Also, the Vmax at Am2136 WT [2] worked out at 429 ± 9 µmol/min.
On Am2136 WT [1], `O=c1ccn([C@@H]2O[C@H](COP(=O)(O)OP(=O)(O)OP(=O)(O)O)[C@@H](O)[C@H]2O)c(=O)[nH]1` [UTP] had a Kd of 199 ± 3.66 µM. Further, the Vmax at Am2136 WT [2] was 439 ± 7 µmol/min.

B1: Am2136 WT (Akkermansia muciniphila ATCC BAA-835) (protein)
chain: QDAKQIADSLSIPPVKAGAKQLPMPSVSGAQIKLLGADYEQLVNSKGKIAPVISDTPVNVSFKVTKDGKEAVSKDYEIMLQAPQAAQGNPKPRIIPEILQWKGGQGEYKLGNTVTIACPDKELGKLFAADMEDVLGKKVKLVAPGAKADISLSLLKGGNLGREGYRLQIARDGVRLGAAAPTGLFWGTRTLLQMLRQTPGSVPCGTAVDFPRYQLRGFMLDVARTPYPLSYLKDVIRTMAWYKMNDLHLVINNNYIFHEHYVDNGHDPFKESYAAFRLESKMKGKDGTPLTARDLFYTKKEFADLVSYARKYGVNIVPEFDTPGHALSFTRLRPDLIYKGPMNHEKRRCEMLDAANPETIDLVSKVFDEYMLKDPKLGRPVFADCGVVHVGADEFYGDKEDYRHFANAVLTHALKRGYTPRIWGSLSAKPGKTPVVSKGVQMNLWSTGWMKAWEAVNQGYDVINTNDGALYIVPFAGYYRMDRNHKGLYNNWIPNRIGNETLPSGHPQLLGGTFAVWNDETDIMHTGYAPYDIWGIISGSMDVLSQKLWGTAKAPDTFEQHRELVSSIGNAPRTNPLHKWKDSQPLTVKPSSLPQKLDKPALGPNYRLTMELELTAAPEGKEQVLLAAPEGELLAVMKDGTVGFRRDDSLEFSFGAKLPVGKKVKVEIVGEPEKTSLLLDGEPAGTAVLKNFSDKSKDFSDKFKHRPKVHRSTFILPLKELGSSFQGKVFHMNVQPL
A word on the Km: it is the substrate concentration at which the rate is half of its maximum. For B1, the figures for the Km in data set [3] and in data set [3] (37.0 °C) were 1530 ± 80 µM and 1460 ± 50 µM, respectively.

B2: Y550A (Akkermansia muciniphila ATCC BAA-835; Y550A) (protein)
chain: B1 chain with Y531A
Regarding B2, in data set [3] (37.0 °C), the Km was found to be 1520 ± 40 µM.

B3: T545A+G546A (Akkermansia muciniphila ATCC BAA-835; G546A/T545A) (protein)
chain: B1 chain with T526A, G527A
notes: residues Q20-L756 without signal peptide, N-terminal 6xHis-tag
As a reminder, the kcat/Km is the second-order rate constant that governs catalysis at low substrate concentration. In the case of B3, in data set [4], the Michaelis constant (Km) was determined as 3660 ± 690 µM, the Vmax turned out to be 264 µmol/min and the catalytic efficiency (kcat/Km) worked out at 36000 ± 5000 M⁻¹ s⁻¹.

B4: D57A+E59A+Q60A (Akkermansia muciniphila ATCC BAA-835; D57A/E59A/Q60A) (protein)
chain: B1 chain with D38A, E40A, Q41A
notes: as for B3
In the case of B4, in data set [4], the Km came out at 1410 ± 60 µM, the Vmax is 432 µmol/min and the catalytic efficiency (kcat/Km) turned out to be 153000 ± 3000 M⁻¹ s⁻¹.

B5: Y415A (Akkermansia muciniphila ATCC BAA-835; Y415A) (protein)
chain: B1 chain with Y396A
notes: as for B3
As to B5, in data set [4], the Km was 2320 ± 80 µM, the Vmax worked out at 399 µmol/min and the kcat/Km worked out at 86000 ± 1000 M⁻¹ s⁻¹.

B6: E649A (Akkermansia muciniphila ATCC BAA-835; E649A) (protein)
chain: B1 chain with E630A
B6: in data set [3] (37.0 °C), the Km is 1450 ± 90 µM.

B7: Δ D717-K727 (Akkermansia muciniphila ATCC BAA-835; DEL717-727) (protein)
chain: QDAKQIADSLSIPPVKAGAKQLPMPSVSGAQIKLLGADYEQLVNSKGKIAPVISDTPVNVSFKVTKDGKEAVSKDYEIMLQAPQAAQGNPKPRIIPEILQWKGGQGEYKLGNTVTIACPDKELGKLFAADMEDVLGKKVKLVAPGAKADISLSLLKGGNLGREGYRLQIARDGVRLGAAAPTGLFWGTRTLLQMLRQTPGSVPCGTAVDFPRYQLRGFMLDVARTPYPLSYLKDVIRTMAWYKMNDLHLVINNNYIFHEHYVDNGHDPFKESYAAFRLESKMKGKDGTPLTARDLFYTKKEFADLVSYARKYGVNIVPEFDTPGHALSFTRLRPDLIYKGPMNHEKRRCEMLDAANPETIDLVSKVFDEYMLKDPKLGRPVFADCGVVHVGADEFYGDKEDYRHFANAVLTHALKRGYTPRIWGSLSAKPGKTPVVSKGVQMNLWSTGWMKAWEAVNQGYDVINTNDGALYIVPFAGYYRMDRNHKGLYNNWIPNRIGNETLPSGHPQLLGGTFAVWNDETDIMHTGYAPYDIWGIISGSMDVLSQKLWGTAKAPDTFEQHRELVSSIGNAPRTNPLHKWKDSQPLTVKPSSLPQKLDKPALGPNYRLTMELELTAAPEGKEQVLLAAPEGELLAVMKDGTVGFRRDDSLEFSFGAKLPVGKKVKVEIVGEPEKTSLLLDGEPAGTAVLKNFSDKSKVHRSTFILPLKELGSSFQGKVFHMNVQPL
notes: residues Q20-L756 without signal peptide, N-terminal 6xHis-tag; loop D717-K727 deleted
Take B7: in data set [4], the Km came out at 6560 ± 410 µM, the maximum rate (Vmax) worked out at 144 µmol/min and the specificity constant (kcat/Km) was found to be 11000 ± 1000 M⁻¹ s⁻¹.
